Measured values from patent US20190225652A1, “GENERATION OF PEPTIDES” (Hexima Limited, priority 2015, published 2019).

Key:
[1] = molecular target: T1, R1 peptide derivative GLVFAEFLPLFSKFGSRMHILKNG
T1 chain: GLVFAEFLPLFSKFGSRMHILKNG

[2] = molecular target: T2, R1 peptide derivative QLVFAEFLPLFSKFGSRMHILKNGL
T2 chain: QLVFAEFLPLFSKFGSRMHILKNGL

[3] = molecular target: T3, R1 peptide derivative GLVFAEFLPLFSKFGSRMHILKNGL
T3 chain: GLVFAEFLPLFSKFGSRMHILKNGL

[4] = molecular target: T4, synthetic linear kalata B1 precursor carrying the native C-terminal pro-hepta-peptide GLPSLAA (wt kB1 precursor)
T4 chain: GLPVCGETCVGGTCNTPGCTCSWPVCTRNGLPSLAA

[5] = molecular target: T5, R1 peptide derivative GLPVFAEFLPLFSKFGSRMHILKSTRNGLP
T5 chain: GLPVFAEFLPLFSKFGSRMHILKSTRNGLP

[6] = molecular target: T6, R1 peptide derivative VFAEFLPLFSKFGSRMHILKNGL
T6 chain: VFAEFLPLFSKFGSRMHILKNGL

[7] = molecular target: T7, R1 peptide derivative KLVFAEFLPLFSKFGSRMHILKNGL
T7 chain: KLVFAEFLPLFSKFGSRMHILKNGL

B1: recombinant Oldenlandia affinis asparaginyl endopeptidase OaAEP1b, activated (rOaAEP1b) (protein)
chain: MVRYLAGAVLLLVVLSVAAAVSGARDGDYLHLPSEVSRFFRPQETNDDHGEDSVGTRWAVLIAGSKGYANYRHQAGVCHAYQILKRGGLKDENIVVFMYDDIAYNESNPRPGVIINSPHGSDVYAGVPKDYTGEEVNAKNFLAAILGNKSAITGGSGKVVDSGPNDHIFIYYTDHGAAGVIGMPSKPYLYADELNDALKKKHASGTYKSLVFYLEACESGSMFEGILPEDLNIYALTSTNTTESSWCYYCPAQENPPPPEYNVCLGDLFSVAWLEDSDVQNSWYETLNQQYHHVDKRISHASHATQYGNLKLGEEGLFVYMGSNPANDNYTSLDGNALTPSSIVVNQRDADLLHLWEKFRKAPEGSARKEVAQTQIFKAMSHRVHIDSSIKLIGKLLFGIEKCTEILNAVRPAGQPLVDDWACLRSLVGTFETHCGSLSEYGMRHTRTIANICNAGISEEQMAEAASQACASIP
Linear precursor (%) [1]: 100% | Cyclic product (%) [2]: 93.1% | Linear precursor (%) [2]: 6.9% | Cyclic product (%) [3]: 92.9% | Linear precursor (%) [3]: 7.1% | Km [4]: 212 (±76) µM for Km | kcat [4]: 0.53 (±0.1) s^-1 for kcat | kcat/Km [4]: 2,500 M^-1 s^-1 for kcat/Km | Cyclic product (%) [5]: 78.8% | Linear precursor (%) [5]: 21.2% | Cyclic product (%) [6]: 49.6% | Linear precursor (%) [6]: 27.7% | Linear product (%) [6]: 27.7% | Cyclic product (%) [7]: 82.2% | Linear precursor (%) [7]: 17.8%
